Experiment [1] concerns the target T1, cynomolgus CD47-ECD-Avi-His (cynomolgus monkey).
T1 construct: also called recombinant cynomolgus monkey CD47-avi-his protein
T1 chain: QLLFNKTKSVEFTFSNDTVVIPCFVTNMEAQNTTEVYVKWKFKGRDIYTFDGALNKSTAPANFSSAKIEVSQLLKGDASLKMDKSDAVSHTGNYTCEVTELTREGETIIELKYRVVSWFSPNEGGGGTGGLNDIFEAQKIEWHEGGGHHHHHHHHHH
As to the kind of experiment: SPR, CD47 amine-coupled, Fab analyte, 1:1 fit. Background: SPR reads the build-up and loss of mass on a sensor chip optically.

The next experiment concerns the target T2, human CD47-ECD-Avi-His (human).
T2 construct: also called recombinant human CD47-avi-his protein; recombinant human CD47 protein
As to the kind of experiment: SPR, CD47 amine-coupled, Fab analyte, 1:1 fit.

A further experiment has as its target T3, human FcγR3a-ECD-His (human, UniProt P08637 17-193).
T3 construct: His-tagged fusion made in house (UniProt P08637); also called FcγRIIIa; Fc-receptor IIIa
As to the kind of experiment: SPR steady state, antibody on protein G chip, receptor analyte; reference trastuzumab control IgG1.

In the next experiment the target is T4, human FcγR2a-ECD-His (human, UniProt P12318 34-208).
T4 construct: His-tagged fusion made in house (UniProt P12318); The SPR method names only 'Fc-receptors IIa, IIb, and IIIa'; also called FcγRIIa; Fc-receptor IIa
T4 chain: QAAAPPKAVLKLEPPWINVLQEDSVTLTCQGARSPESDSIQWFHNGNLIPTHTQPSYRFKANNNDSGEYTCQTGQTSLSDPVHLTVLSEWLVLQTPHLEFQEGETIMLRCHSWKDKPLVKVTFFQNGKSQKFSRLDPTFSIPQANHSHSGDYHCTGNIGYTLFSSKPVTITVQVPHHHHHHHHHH
The description is as above.

A further experiment concerns the target T5, human FcγR2b-ECD-His (human, UniProt P31994 46-217).
T5 construct: His-tagged fusion made in house (UniProt P31994); also called FcγRIIb; Fc-receptor IIb
T5 sequence: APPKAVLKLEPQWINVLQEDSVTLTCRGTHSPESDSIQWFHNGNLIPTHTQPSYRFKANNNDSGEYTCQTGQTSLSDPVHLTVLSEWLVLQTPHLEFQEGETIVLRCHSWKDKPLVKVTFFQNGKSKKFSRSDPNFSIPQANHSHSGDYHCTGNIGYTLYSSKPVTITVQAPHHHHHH
The description is as above.

In experiment [2] the target is Avi-Tagged FcγRIa (Acrobiosystems, FCA-H82E8) (UniProt P12314 16-288, biotinylated (captured with Biotin CAPture kit)). The experiment can be described thus: SPR, FcγRIa captured on CAP chip, antibody analyte; reference trastuzumab control IgG1.
Experiment [3] concerns the target T6, Avi-Tagged FcRn (Acrobiosystems, FCM-H82W2) (human, UniProt P55899 24-297, biotinylated (captured with Biotin CAPture kit)).
T6 construct: also called human neonatal Fc receptor
As to the kind of experiment: SPR steady state, FcRn captured on CAP chip, antibody analyte; reference trastuzumab control IgG1.

B1: anti-CD47-UCP02-C1 FAB (Fab, V domains shown)
VH: QVQLVQSGAEVKKPGSSVKVSCKASGGFFSAHTISWVRQAPGQGLEWMGRITAVRGVPTYAQKFQGRVTITADESTSTAYMELSSLRSEDTAVYYCARASYGGPRYYWDGLDIWGQGTLVTVSS
VL: not shown
notes: human IgG1 Fab
Turning to B1, the Kd turned out to be 113 nM in experiment [1] and 193 nM in the experiment with human CD47-ECD-Avi-His.

B2: anti-CD47-UCP02-B3 FAB (Fab, V domains shown)
VH: QVQLVQSGAEVKKPGSSVKVSCKASGGRFRLYGINWVRQAPGQGLEWMGGISPIDGYAAYAQKFQGRVTITADESTSTAYMELSSLRSEDTAVYYCARSRRPYSASASYPGYGMDVWGQGTLVTVSS
VL: not shown
notes: human IgG1 Fab
B2: the equilibrium dissociation constant (Kd) in experiment [1] was 1120 nM; with human CD47-ECD-Avi-His, 1010 nM.

B3: anti-CD47-UCP02-H3 FAB (Fab, V domains shown)
VH: QVQLVQSGAEVKKPGSSVKVSCKASGGFFRLYAFSWVRQAPGQGLEWMGGIIPTDGFVGYAQKFQGRVTITADESTSTAYMELSSLRSEDTAVYYCARSRYYRPYGEYYVVGYGFAYWGQGTLVTVSS
VL: not shown
notes: human IgG1 Fab
As for B3, the Kd in experiment [1] was 17.8 nM; in the experiment with human CD47-ECD-Avi-His, 455 nM.

B4: anti-CD47-UCP01-A2 FAB (Fab, V domains shown)
VH: EVQLLESGGGLVQPGGSLRLSCAASGFTFSRFAMGWVRQAPGKGLEWVSIISPNGHVTAYADSVKGRFTISRDNSKNTLYLQMNSLRAEDTAVYYCARDGLSVSSQGVAFDYWGQGTLVTVSS
VL: not shown
notes: human IgG1 Fab
As for B4, the Kd in experiment [1] was found to be 1070 nM; in the experiment with human CD47-ECD-Avi-His it was 822 nM.

B5: anti-CD47-UCP01-G1 FAB (Fab, V domains shown)
VH: EVQLLESGGGLVQPGGSLRLSCAASGFTFSNYAMAWVRQAPGKGLEWVSVISVEGGLTVYADSVKGRFTISRDNSKNTLYLQMNSLRAEDTAVYYCARGSRDSRGKYGAFDVWGQGTLVTVSS
VL: not shown
notes: human IgG1 Fab
Consider B5, for which the equilibrium dissociation constant (Kd) in experiment [1] came out at 214 nM; in the experiment with human CD47-ECD-Avi-His, 136 nM.

B6: BEAT CD38/CD47-40 (bispecific antibody, human IgG1, kappa)
heavy 1: EVQLVESGGGLIQPGGSLRLSCAASGFTLSRNTMHWVRQAPGKGLEWVSVIYQSGVTRYADSVKSRFTISRDNSKNTLYLQMNSLRAEDTAVYYCARGRYGVAGGPGYAFDVWGQGTLVTVSSASTKGPSVFPLAPSSKSTSGGTAALGCLVKDYFPEPVTVSWNSGALTSGVHTFPAVLQSSGLYSLSSVVTVPSSSLGTQTYICNVNHKPSNTKVDKKVEPKSCDKTHTCPPCPAPELLGGPSVFLFPPKPKDTLMISRTPEVTCVVVDVSHDDPEVKFNWYVDGVEVHNAKTKPREEQYNATYRVVSVLTVLHQDWLNGKEYKCKVNNKALPAPIEATISKAKGQPREPAVYTLPPSREEMTKNQVKLVCLVTGFYPSDIAVEWESSGQPENNYYTTPPMLDSDGSFSLVSWLNVDKSRWQQGNIFSCSVMHEALHNRFTQKSLSLSPG
heavy 2: not shown
light: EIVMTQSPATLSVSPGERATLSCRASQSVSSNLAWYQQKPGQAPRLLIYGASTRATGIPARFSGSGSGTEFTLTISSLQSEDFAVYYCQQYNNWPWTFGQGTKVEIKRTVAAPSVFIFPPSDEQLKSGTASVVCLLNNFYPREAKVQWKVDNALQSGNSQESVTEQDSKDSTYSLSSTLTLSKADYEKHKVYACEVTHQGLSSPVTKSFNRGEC
notes: 2+1 biparatopic format; E269D + S298A + S324N + K334A in both heavy chains
For B6, the “fold gain in affinity vs control” value turned out to be 4 fold with human FcγR3a-ECD-His, 0.4 fold in the experiment with human FcγR2a-ECD-His, 1 fold in the experiment with human FcγR2b-ECD-His and 4510 fold in experiment [2]. Besides, in experiment [3], the “KD ratio [BEAT/Control IgG1]” value amounted to 0.3 ratio.

B7: BEAT CD38/CD47-32 (bispecific antibody, human IgG1, kappa)
heavy 1: EVQLVESGGGLIQPGGSLRLSCAASGFTLSRNTMHWVRQAPGKGLEWVSVIYQSGVTRYADSVKSRFTISRDNSKNTLYLQMNSLRAEDTAVYYCARGRYGVAGGPGYAFDVWGQGTLVTVSSASTKGPSVFPLAPSSKSTSGGTAALGCLVKDYFPEPVTVSWNSGALTSGVHTFPAVLQSSGLYSLSSVVTVPSSSLGTQTYICNVNHKPSNTKVDKKVEPKSCDKTHTCPPCPAPELLGGPSVFLFPPKPKDTLMISRTPEVTCVVVDVSHDDPEVKFNWYVDGVEVHNAKTKPREEQYNATYRVVSVLTVLHQDWLNGKEYKCKVNNKALPAPIAKTISKAKGQPREPAVYTLPPSREEMTKNQVKLVCLVTGFYPSDIAVEWESSGQPENNYYTTPPMLDSDGSFSLVSWLNVDKSRWQQGNIFSCSVMHEALHNRFTQKSLSLSPG
heavy 2: QVQLVQSGAEVKKPGSSVKVSCKASGLPDATYAIGWVRQAPGQGLEWMGRIIPRLDAEHYAQKFQGRVTITADESTSTAYMELSSLRSEDTAVYYCARGLGYYLYSSYYFDIWGQGTLVTVSSASTKGPSVFPLAPSSKSTSGGTAALGCLVKDYFPEPVTVSWNSGALTSGVHTFPAVLQSSGLYSLSSVVTVPSSSLGTQTYICNVNHKPSNTKVDKKVEPKSCGGGGSGGGGSGGGGSQVQLVQSGAEVKKPGSSVKVSCKASGLPDATYAIGWVRQAPGQGLEWMGRIIPRLDAEHYAQKFQGRVTITADESTSTAYMELSSLRSEDTAVYYCARGLGYYLYSSYYFDIWGQGTLVTVSSASTKGPSVFPLAPSSKSTSGGTAALGCLVKDYFPEPVTVSWNSGALTSGVHTFPAVLQSSGLYSLSSVVTVPSSSLGTQTYICNVNHKPSNTKVDKKVEPKSCDKTHTCPPCPAPELLGGPSVFLFPPKPKDTLMISRTPEVTCVVVDVSHDDPEVKFNWYVDGVEVHNAKTKPREEQYNATYRVVSVLTVLHQDWLNGKEYKCKVNNKALPAPIAKTISKAKGQPREPEVATFPPSRDELTKNQVTLVCLVTGFYPSDIAVEWESNGQPENNYKTDPPLLESQGSFALSSRLRVDKSRWQQGNVFSCSVMHEALHNHYTQKSLSLSPG
light: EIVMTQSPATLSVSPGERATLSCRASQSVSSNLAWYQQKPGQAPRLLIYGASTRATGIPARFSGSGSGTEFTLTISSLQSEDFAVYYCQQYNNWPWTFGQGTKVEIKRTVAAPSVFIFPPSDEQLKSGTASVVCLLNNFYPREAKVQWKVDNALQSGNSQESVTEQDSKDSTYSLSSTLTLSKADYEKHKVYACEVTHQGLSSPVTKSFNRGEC
notes: 2+1 monoparatopic format; E269D + S298A + S324N + E333A in both heavy chains
As to B7, the “fold gain in affinity vs control” value was found to be 3 fold with human FcγR3a-ECD-His, 0.5 fold with human FcγR2a-ECD-His, 1 fold in the experiment with human FcγR2b-ECD-His and 12 fold in experiment [2].

B8: BEAT CD38/CD47-34 (bispecific antibody, human IgG1, kappa)
heavy 1: EVQLVESGGGLIQPGGSLRLSCAASGFTLSRNTMHWVRQAPGKGLEWVSVIYQSGVTRYADSVKSRFTISRDNSKNTLYLQMNSLRAEDTAVYYCARGRYGVAGGPGYAFDVWGQGTLVTVSSASTKGPSVFPLAPSSKSTSGGTAALGCLVKDYFPEPVTVSWNSGALTSGVHTFPAVLQSSGLYSLSSVVTVPSSSLGTQTYICNVNHKPSNTKVDKKVEPKSCDKTHTCPPCPAPELLGGPSVFLFPPKPKDTLMISRTPEVTCVVVDVSHDDPEVKFNWYVDGVEVHNAKTKPREEQYNATYRVVSVLTVLHQDWLNGKEYKCKVNNKALPAPIEATISKAKGQPREPAVYTLPPSREEMTKNQVKLVCLVTGFYPSDIAVEWESSGQPENNYYTTPPMLDSDGSFSLVSWLNVDKSRWQQGNIFSCSVMHEALHNRFTQKSLSLSPG
heavy 2: QVQLVQSGAEVKKPGSSVKVSCKASGLPDATYAIGWVRQAPGQGLEWMGRIIPRLDAEHYAQKFQGRVTITADESTSTAYMELSSLRSEDTAVYYCARGLGYYLYSSYYFDIWGQGTLVTVSSASTKGPSVFPLAPSSKSTSGGTAALGCLVKDYFPEPVTVSWNSGALTSGVHTFPAVLQSSGLYSLSSVVTVPSSSLGTQTYICNVNHKPSNTKVDKKVEPKSCGGGGSGGGGSGGGGSQVQLVQSGAEVKKPGSSVKVSCKASGLPDATYAIGWVRQAPGQGLEWMGRIIPRLDAEHYAQKFQGRVTITADESTSTAYMELSSLRSEDTAVYYCARGLGYYLYSSYYFDIWGQGTLVTVSSASTKGPSVFPLAPSSKSTSGGTAALGCLVKDYFPEPVTVSWNSGALTSGVHTFPAVLQSSGLYSLSSVVTVPSSSLGTQTYICNVNHKPSNTKVDKKVEPKSCDKTHTCPPCPAPELLGGPSVFLFPPKPKDTLMISRTPEVTCVVVDVSHDDPEVKFNWYVDGVEVHNAKTKPREEQYNATYRVVSVLTVLHQDWLNGKEYKCKVNNKALPAPIEATISKAKGQPREPEVATFPPSRDELTKNQVTLVCLVTGFYPSDIAVEWESNGQPENNYKTDPPLLESQGSFALSSRLRVDKSRWQQGNVFSCSVMHEALHNHYTQKSLSLSPG
light: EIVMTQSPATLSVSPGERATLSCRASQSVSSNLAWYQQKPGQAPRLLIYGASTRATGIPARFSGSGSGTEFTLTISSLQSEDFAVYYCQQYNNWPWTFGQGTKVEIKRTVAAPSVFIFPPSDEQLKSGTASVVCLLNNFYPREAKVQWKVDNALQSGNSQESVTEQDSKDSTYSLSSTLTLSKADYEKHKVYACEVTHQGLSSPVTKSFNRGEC
notes: 2+1 monoparatopic format; E269D + S298A + S324N + K334A in both heavy chains
Consider B8, for which the “fold gain in affinity vs control” value amounted to 4 fold in the experiment with human FcγR3a-ECD-His, 0.4 fold in the experiment with human FcγR2a-ECD-His, 1 fold with human FcγR2b-ECD-His and 874 fold in experiment [2].

B9: anti-CD47-UCP01-B3 FAB (Fab, V domains shown)
VH: EVQLVESGGGLIQPGGSLRLSCAASGFTFSNNYMSWVRQAPGKGLEWVSVIYKKGFTNYADSVKGRFTISRDNSKNTLYLQMNSLRAEDTAVYYCARGLSVDKYDGGPFDYWGQGTLVTVSS
VL: not shown
notes: human IgG1 Fab
For the molecule B9, the dissociation constant (Kd) in experiment [1] amounted to 340 nM; in the experiment with human CD47-ECD-Avi-His, 316 nM.

The term Kd denotes a measure of binding affinity in units of concentration. The low end stands for higher affinity, the high end for lower affinity.

The values are drawn from patent publication US20240150489A1 (ICHNOS SCIENCES, published 2024).
